Experimental data: paper PMC7948419, “Endophilin recruitment drives membrane curvature generation through coincidence detection of GPCR loop interactions and negative lipid charge” (The Journal of Biological Chemistry, 2020)
One block for each molecule: values may come before it.

Tests used:
[1] = biological target: beta1-adrenergic receptor TIL (UniProt P08588); conditions: cited from earlier work
[2] = biological target: T1, full-length rat endophilin A1 (C108S, E241C, C294S, C295S), labeled with Alexa 594-maleimide (rat, UniProt O35179 1-352, C108S | E241C | C294S | C295S, Alexa 594-maleimide on the cysteine (E241C)); experiment: confocal fluorescence imaging of recruitment to peptide-conjugated GUVs; TIL-Alexa 488 covalently conjugated (cysteine-maleimide) to GUVs of MCC-PE/DOPC/DiD 5:94.5:0.5; Alexa 594-labeled protein added in solution; HEPES buffer (20 mM HEPES, 150 mM NaCl, 1 mM TCEP, pH 7.4); room temperature; conditions: both partners purified
T1 construct: endophilin A1, rat, full length; The introduction calls endophilin a dimeric protein; also called endophilin-Alexa 594; single cysteine mutant of rat endophilin A1
T1 sequence (O35179 whole entry C108S/E241C/C294S/C295S): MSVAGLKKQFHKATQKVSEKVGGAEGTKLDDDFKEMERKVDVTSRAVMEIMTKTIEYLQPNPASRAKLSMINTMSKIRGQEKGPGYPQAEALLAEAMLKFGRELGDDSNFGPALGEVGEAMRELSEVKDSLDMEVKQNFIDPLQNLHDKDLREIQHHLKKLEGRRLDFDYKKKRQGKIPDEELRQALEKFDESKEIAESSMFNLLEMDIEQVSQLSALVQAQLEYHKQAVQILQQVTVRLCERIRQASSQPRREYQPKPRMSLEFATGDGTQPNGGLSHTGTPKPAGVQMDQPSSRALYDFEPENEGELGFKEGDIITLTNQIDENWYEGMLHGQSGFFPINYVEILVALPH

Molecule: endophilin A1 (from UniProt Q99962)
Kd [1]: 47 nM

binding result [2]: binds
B1: third intracellular loop (TIL) of the β1-adrenergic receptor (amino acids 246–325), labeled with Alexa 488 (domain or fragment, UniProt P08588 246-325, looked up)
chain: RVFREAQKQVKKIDSCERRFLGGPARPPSPSPSPVPAPAPPPGPPRPAAAAATAPLANGRAGKRRPSRLVALREQKALKT
modifications: Alexa 488 on the N-terminal amine (30 to 50% labeling); Cys261 coupled to the maleimide lipid MCC-PE in the experiments with TIL-conjugated vesicles
notes: β1-adrenergic receptor, third intracellular loop, amino acids 246–325, cloned from the pcDNA3-Flag beta-1-adrenergic-receptor vector; 80 residues, 8861 Da; Cloned into BamHI/EcoRI of pGEX6p1 and cut with PreScission protease, so a few vector residues may remain at the N-terminus (surmise); also called TIL peptide; TIL-Alexa 488; source: E. coli BL21-CodonPlus (DE3)-RIL, purified (GST trap, …)
